Publication PMC4431670 (Structure(London, England:1993), 2015)

Key:
[1] = molecular target: T1, C-terminal domain of Not1 (Not1C), residues 1541-2093 (S. cerevisiae, UniProt P25655 1541-2093); assay: pull-down
T1 sequence (looked up): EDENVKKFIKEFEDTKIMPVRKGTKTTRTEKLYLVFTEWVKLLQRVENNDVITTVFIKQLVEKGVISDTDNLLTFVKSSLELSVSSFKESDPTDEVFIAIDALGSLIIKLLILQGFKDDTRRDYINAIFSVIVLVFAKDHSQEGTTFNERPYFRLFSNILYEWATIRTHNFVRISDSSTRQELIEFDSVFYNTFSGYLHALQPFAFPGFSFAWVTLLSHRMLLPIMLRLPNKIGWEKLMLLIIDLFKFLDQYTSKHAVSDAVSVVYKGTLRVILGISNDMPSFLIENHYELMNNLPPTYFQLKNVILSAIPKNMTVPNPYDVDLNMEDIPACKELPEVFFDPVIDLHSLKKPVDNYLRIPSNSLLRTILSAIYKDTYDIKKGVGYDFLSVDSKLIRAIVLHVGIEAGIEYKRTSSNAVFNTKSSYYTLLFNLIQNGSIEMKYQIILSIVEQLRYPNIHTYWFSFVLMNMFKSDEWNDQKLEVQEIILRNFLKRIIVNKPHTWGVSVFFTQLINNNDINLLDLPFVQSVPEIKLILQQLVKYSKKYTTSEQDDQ

[2] = molecular target: T1, C-terminal domain of Not1 (Not1C), …; assay: crystal structure

B1: GST-tagged Not4C (domain or fragment, S. cerevisiae, UniProt P34909 418-477, looked up)
chain: DPYDALGNAVDFLDARLHSLSNYQKRPISIKSNIIDEETYKKYPSLFSWDKIEASKKSDN
B1: binds [1].

B2: Not4C, residues 418-477 of Not4 (domain or fragment, S. cerevisiae, UniProt P34909 418-477, looked up)
chain: DPYDALGNAVDFLDARLHSLSNYQKRPISIKSNIIDEETYKKYPSLFSWDKIEASKKSDN
B2: binds [2].
